Laboratory results published in patent US20160115500A1 (University of California, published 2016).

T1: GAL4 activation domain fusion (ACT) to HAB1 (UniProt Q9CAJ0 23-511, limits assumed)
T1 construct: pACT-HAB1 fusion in yeast reporter strains; also called pACT-HAB1
T1 sequence (looked up): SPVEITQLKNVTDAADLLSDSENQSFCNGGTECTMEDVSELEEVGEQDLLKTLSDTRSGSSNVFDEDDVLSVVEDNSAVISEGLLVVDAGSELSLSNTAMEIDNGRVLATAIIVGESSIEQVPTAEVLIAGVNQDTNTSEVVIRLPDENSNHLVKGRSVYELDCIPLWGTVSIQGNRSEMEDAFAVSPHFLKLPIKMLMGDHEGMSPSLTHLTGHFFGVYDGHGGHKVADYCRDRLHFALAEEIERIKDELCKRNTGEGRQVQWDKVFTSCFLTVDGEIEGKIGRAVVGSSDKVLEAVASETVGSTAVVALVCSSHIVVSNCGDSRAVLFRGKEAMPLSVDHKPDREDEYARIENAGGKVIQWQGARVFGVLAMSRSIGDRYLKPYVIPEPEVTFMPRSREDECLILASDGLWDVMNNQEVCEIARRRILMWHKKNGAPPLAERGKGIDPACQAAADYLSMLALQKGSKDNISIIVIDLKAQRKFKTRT


The binders below were run against T1, GAL4 activation domain fusion (ACT) to … (assay: yeast two-hybrid, X-gal; lowest fludioxonil concentration giving signal).

Threshold [µM] | Binder
1 | PYR1^K59R,E94A (receptor, not shown: small tags and cut ends, pBD-PYR1 fusion in yeast) MPSELTPEERSELKNSIAEFHTYQLDPGSCSSLHAQRIHAPPELVWSIVRRFDKPQTYRHFIKSCSVEQNFEMRVGCTRDVIVISGLPANTSTARLDILDDERRVTGFSIIGGEHRLTNYKSVTTVHRFEKENRIWTVVLESYVVDMPEGNSEDDTRMFADTVVKLNLQKLATVAEAMARNSGDGSGSQVT
100 | PYR1^K59R,S92F (receptor, not shown: small tags and cut ends, pBD-PYR1 fusion in yeast) MPSELTPEERSELKNSIAEFHTYQLDPGSCSSLHAQRIHAPPELVWSIVRRFDKPQTYRHFIKSCSVEQNFEMRVGCTRDVIVISGLPANTFTERLDILDDERRVTGFSIIGGEHRLTNYKSVTTVHRFEKENRIWTVVLESYVVDMPEGNSEDDTRMFADTVVKLNLQKLATVAEAMARNSGDGSGSQVT
100 | PYR1^K59R,V81Y (receptor, not shown: small tags and cut ends, pBD-PYR1 fusion in yeast) MPSELTPEERSELKNSIAEFHTYQLDPGSCSSLHAQRIHAPPELVWSIVRRFDKPQTYRHFIKSCSVEQNFEMRVGCTRDYIVISGLPANTSTERLDILDDERRVTGFSIIGGEHRLTNYKSVTTVHRFEKENRIWTVVLESYVVDMPEGNSEDDTRMFADTVVKLNLQKLATVAEAMARNSGDGSGSQVT
100 | PYR1^K59R,Y120G (receptor, not shown: small tags and cut ends, pBD-PYR1 fusion in yeast) MPSELTPEERSELKNSIAEFHTYQLDPGSCSSLHAQRIHAPPELVWSIVRRFDKPQTYRHFIKSCSVEQNFEMRVGCTRDVIVISGLPANTSTERLDILDDERRVTGFSIIGGEHRLTNGKSVTTVHRFEKENRIWTVVLESYVVDMPEGNSEDDTRMFADTVVKLNLQKLATVAEAMARNSGDGSGSQVT
100 | PYR1^K59R,Y120A (receptor, not shown: small tags and cut ends, pBD-PYR1 fusion in yeast) MPSELTPEERSELKNSIAEFHTYQLDPGSCSSLHAQRIHAPPELVWSIVRRFDKPQTYRHFIKSCSVEQNFEMRVGCTRDVIVISGLPANTSTERLDILDDERRVTGFSIIGGEHRLTNAKSVTTVHRFEKENRIWTVVLESYVVDMPEGNSEDDTRMFADTVVKLNLQKLATVAEAMARNSGDGSGSQVT
100 | PYR1^K59R,Y120F (receptor, not shown: small tags and cut ends, pBD-PYR1 fusion in yeast) MPSELTPEERSELKNSIAEFHTYQLDPGSCSSLHAQRIHAPPELVWSIVRRFDKPQTYRHFIKSCSVEQNFEMRVGCTRDVIVISGLPANTSTERLDILDDERRVTGFSIIGGEHRLTNFKSVTTVHRFEKENRIWTVVLESYVVDMPEGNSEDDTRMFADTVVKLNLQKLATVAEAMARNSGDGSGSQVT
10 | PYR1^K59R,E94A,N167C (receptor, not shown: small tags and cut ends, pBD-PYR1 fusion in yeast) MPSELTPEERSELKNSIAEFHTYQLDPGSCSSLHAQRIHAPPELVWSIVRRFDKPQTYRHFIKSCSVEQNFEMRVGCTRDVIVISGLPANTSTARLDILDDERRVTGFSIIGGEHRLTNYKSVTTVHRFEKENRIWTVVLESYVVDMPEGNSEDDTRMFADTVVKLCLQKLATVAEAMARNSGDGSGSQVT
10 | PYR1^K59R,Y120A,N167C (receptor, not shown: small tags and cut ends, pBD-PYR1 fusion in yeast) MPSELTPEERSELKNSIAEFHTYQLDPGSCSSLHAQRIHAPPELVWSIVRRFDKPQTYRHFIKSCSVEQNFEMRVGCTRDVIVISGLPANTSTERLDILDDERRVTGFSIIGGEHRLTNAKSVTTVHRFEKENRIWTVVLESYVVDMPEGNSEDDTRMFADTVVKLCLQKLATVAEAMARNSGDGSGSQVT
10 | PYR1^K59R,Y120A,E141Y (receptor, not shown: small tags and cut ends, pBD-PYR1 fusion in yeast) MPSELTPEERSELKNSIAEFHTYQLDPGSCSSLHAQRIHAPPELVWSIVRRFDKPQTYRHFIKSCSVEQNFEMRVGCTRDVIVISGLPANTSTERLDILDDERRVTGFSIIGGEHRLTNAKSVTTVHRFEKENRIWTVVLYSYVVDMPEGNSEDDTRMFADTVVKLNLQKLATVAEAMARNSGDGSGSQVT
100 | PYR1^K59R,N167V (receptor, not shown: small tags and cut ends, pBD-PYR1 fusion in yeast) MPSELTPEERSELKNSIAEFHTYQLDPGSCSSLHAQRIHAPPELVWSIVRRFDKPQTYRHFIKSCSVEQNFEMRVGCTRDVIVISGLPANTSTERLDILDDERRVTGFSIIGGEHRLTNYKSVTTVHRFEKENRIWTVVLESYVVDMPEGNSEDDTRMFADTVVKLVLQKLATVAEAMARNSGDGSGSQVT
10 | PYR1^K59R,E94A,Y120A (receptor, not shown: small tags and cut ends, pBD-PYR1 fusion in yeast) MPSELTPEERSELKNSIAEFHTYQLDPGSCSSLHAQRIHAPPELVWSIVRRFDKPQTYRHFIKSCSVEQNFEMRVGCTRDVIVISGLPANTSTARLDILDDERRVTGFSIIGGEHRLTNAKSVTTVHRFEKENRIWTVVLESYVVDMPEGNSEDDTRMFADTVVKLNLQKLATVAEAMARNSGDGSGSQVT
100 | PYR1^K59R,E94S (receptor, not shown: small tags and cut ends, pBD-PYR1 fusion in yeast) MPSELTPEERSELKNSIAEFHTYQLDPGSCSSLHAQRIHAPPELVWSIVRRFDKPQTYRHFIKSCSVEQNFEMRVGCTRDVIVISGLPANTSTSRLDILDDERRVTGFSIIGGEHRLTNYKSVTTVHRFEKENRIWTVVLESYVVDMPEGNSEDDTRMFADTVVKLNLQKLATVAEAMARNSGDGSGSQVT
100 | PYR1^K59R,N167H (receptor, not shown: small tags and cut ends, pBD-PYR1 fusion in yeast) MPSELTPEERSELKNSIAEFHTYQLDPGSCSSLHAQRIHAPPELVWSIVRRFDKPQTYRHFIKSCSVEQNFEMRVGCTRDVIVISGLPANTSTERLDILDDERRVTGFSIIGGEHRLTNYKSVTTVHRFEKENRIWTVVLESYVVDMPEGNSEDDTRMFADTVVKLHLQKLATVAEAMARNSGDGSGSQVT

What follows are binders tested against T1, GAL4 activation domain fusion (ACT) to … (assay: yeast two-hybrid, X-gal; lowest mandipropamid concentration giving signal).

Threshold [µM] | Binder
100 | PYR1^K59R,F108V (receptor, not shown: small tags and cut ends, pBD-PYR1 fusion in yeast) MPSELTPEERSELKNSIAEFHTYQLDPGSCSSLHAQRIHAPPELVWSIVRRFDKPQTYRHFIKSCSVEQNFEMRVGCTRDVIVISGLPANTSTERLDILDDERRVTGVSIIGGEHRLTNYKSVTTVHRFEKENRIWTVVLESYVVDMPEGNSEDDTRMFADTVVKLNLQKLATVAEAMARNSGDGSGSQVT
0.05 | PYR1^Y58H,K59R,V81I,F108A,S122G (receptor, pBD-PYR1 fusion in yeast) MPSELTPEERSELKNSIAEFHTYQLDPGSCSSLHAQRIHAPPELVWSIVRRFDKPQTHRHFIKSCSVEQNFEMRVGCTRDIIVISGLPANTSTERLDILDDERRVTGASIIGGEHRLTNYKGVTTVHRFEKENRIWTVVLESYVVDMPEGNSEDDTRMFADTVVKLNLQKLATVAEAMARNSGDGSGSQVT
0.01 | PYR1^Y58H,K59R,V83L,F108A,S122G (receptor, not shown: small tags and cut ends, pBD-PYR1 fusion in yeast) MPSELTPEERSELKNSIAEFHTYQLDPGSCSSLHAQRIHAPPELVWSIVRRFDKPQTHRHFIKSCSVEQNFEMRVGCTRDVILISGLPANTSTERLDILDDERRVTGASIIGGEHRLTNYKGVTTVHRFEKENRIWTVVLESYVVDMPEGNSEDDTRMFADTVVKLNLQKLATVAEAMARNSGDGSGSQVT
0.01 | PYR1^Y58H,K59R,V81I,F108A,S122G,V164I (receptor, not shown: small tags and cut ends, pBD-PYR1 fusion in yeast) MPSELTPEERSELKNSIAEFHTYQLDPGSCSSLHAQRIHAPPELVWSIVRRFDKPQTHRHFIKSCSVEQNFEMRVGCTRDIIVISGLPANTSTERLDILDDERRVTGASIIGGEHRLTNYKGVTTVHRFEKENRIWTVVLESYVVDMPEGNSEDDTRMFADTVIKLNLQKLATVAEAMARNSGDGSGSQVT
100 | PYR1^K59R,F108E (receptor, not shown: small tags and cut ends, pBD-PYR1 fusion in yeast) MPSELTPEERSELKNSIAEFHTYQLDPGSCSSLHAQRIHAPPELVWSIVRRFDKPQTYRHFIKSCSVEQNFEMRVGCTRDVIVISGLPANTSTERLDILDDERRVTGESIIGGEHRLTNYKSVTTVHRFEKENRIWTVVLESYVVDMPEGNSEDDTRMFADTVVKLNLQKLATVAEAMARNSGDGSGSQVT
0.002 | PYR1^Y58H,K59R,V81I,F108A,S122G,F159L (receptor, not shown: small tags and cut ends, pBD-PYR1 fusion in yeast; also called PYR1^MANDI; pBD-PYR1^MANDI) MPSELTPEERSELKNSIAEFHTYQLDPGSCSSLHAQRIHAPPELVWSIVRRFDKPQTHRHFIKSCSVEQNFEMRVGCTRDIIVISGLPANTSTERLDILDDERRVTGASIIGGEHRLTNYKGVTTVHRFEKENRIWTVVLESYVVDMPEGNSEDDTRMLADTVVKLNLQKLATVAEAMARNSGDGSGSQVT
100 | PYR1^K59R,S122G (receptor, not shown: small tags and cut ends, pBD-PYR1 fusion in yeast) MPSELTPEERSELKNSIAEFHTYQLDPGSCSSLHAQRIHAPPELVWSIVRRFDKPQTYRHFIKSCSVEQNFEMRVGCTRDVIVISGLPANTSTERLDILDDERRVTGFSIIGGEHRLTNYKGVTTVHRFEKENRIWTVVLESYVVDMPEGNSEDDTRMFADTVVKLNLQKLATVAEAMARNSGDGSGSQVT
0.25 | PYR1^Y58H,K59R,F108A,S122G (receptor, pBD-PYR1 fusion in yeast) MPSELTPEERSELKNSIAEFHTYQLDPGSCSSLHAQRIHAPPELVWSIVRRFDKPQTHRHFIKSCSVEQNFEMRVGCTRDVIVISGLPANTSTERLDILDDERRVTGASIIGGEHRLTNYKGVTTVHRFEKENRIWTVVLESYVVDMPEGNSEDDTRMFADTVVKLNLQKLATVAEAMARNSGDGSGSQVT
0.05 | PYR1^K59R,V81I,F108A,S122G,A160V (receptor, pBD-PYR1 fusion in yeast) MPSELTPEERSELKNSIAEFHTYQLDPGSCSSLHAQRIHAPPELVWSIVRRFDKPQTYRHFIKSCSVEQNFEMRVGCTRDIIVISGLPANTSTERLDILDDERRVTGASIIGGEHRLTNYKGVTTVHRFEKENRIWTVVLESYVVDMPEGNSEDDTRMFVDTVVKLNLQKLATVAEAMARNSGDGSGSQVT

These binders were tested against T1, GAL4 activation domain fusion (ACT) to … (assay: yeast two-hybrid, X-gal; lowest dichlobenil concentration giving signal).

Threshold [µM] | Binder
100 | PYR1^K59R,F108E (receptor, not shown: small tags and cut ends, pBD-PYR1 fusion in yeast) MPSELTPEERSELKNSIAEFHTYQLDPGSCSSLHAQRIHAPPELVWSIVRRFDKPQTYRHFIKSCSVEQNFEMRVGCTRDVIVISGLPANTSTERLDILDDERRVTGESIIGGEHRLTNYKSVTTVHRFEKENRIWTVVLESYVVDMPEGNSEDDTRMFADTVVKLNLQKLATVAEAMARNSGDGSGSQVT
